{"source": "patent US20140235553A1", "about": "(REGENTS OF THE UNIVERSITY OF COLORADO A BODY CORPRATE, published 2014)", "binders": {"B1": {"name": "NTD-αA crystallin fusion protein (other)", "chain": "MGSRVQIRCRFRNSTRDVTIQHPWFKRTLGPFYPSRLFDQFFGEGLFEYDLLPFLSSTISPYYRQSLFRTVLDSGISEVRSDRDKFVIFLDVKHFSPEDLTVKVQDDFVEIHGKHNERQDDHGYISREFHRRYRLPSNVDQSALSCSLSADGMLTFCGPKIQTGLDATHAERAIPVSREEKPTSAPSS", "notes": "also called NTD modified α-crystallin subunit (αA)"}, "B2": {"name": "NTD-αB crystallin fusion protein (other)", "chain": "MGSRVQIRCRFRNSTRDIAIHHPWIRRPFFPFHSPSRLFDQFFGEHLLESDLFPTSTSLSPFYLRPPSFLRAPSWFDTGLSEMRLEKDRFSVNLDVKHFSPEELKVKVLGDVIEVHGKHEERQDEHGFISREFHRKYRIPADVDPLTITSSLSSDGVLTVNGPRKQVSGPERTIPITREEKPAVTAAPKK", "notes": "also called NTD-HSPB5; A B NgC"}, "B3": {"name": "αB-crystallin (HSPB5), no transduction peptide (other)", "chain": "MDIAIHHPWIRRPFFPFHSPSRLFDQFFGEHLLESDLFPTSTSLSPFYLRPPSFLRAPSWFDTGLSEMRLEKDRFSVNLDVKHFSPEELKVKVLGDVIEVHGKHEERQDEHGFISREFHRKYRIPADVDPLTITSSLSSDGVLTVNGPRKQVSGPERTIPITREEKPAVTAAPKK", "notes": "also called native αB crystallin; unfused αB crystallin"}}, "key": {"[1]": {"target": "the molecule itself", "test": "size exclusion chromatography, self-association into oligomeric complexes"}, "[2]": {"target": "the molecule itself", "test": "size exclusion chromatography (Superose 6), self-association into oligomeric complexes"}, "[3]": {"target": "B2", "test": "subunit exchange: AlexaFluor-labeled NTD-αB crystallin with 10-fold molar excess of unlabeled αB crystallin at 37° C., size exclusion FPLC, fluorescence of fractions"}}}
{"binder": "B1", "values": [{"measurement": "binding result", "setting": "[1]", "result": "binds"}]}
{"binder": "B2", "values": [{"measurement": "binding result", "setting": "[2]", "result": "binds"}]}
{"binder": "B3", "values": [{"measurement": "binding result", "setting": "[3]", "result": "binds"}]}
